Test results reported in patent US20230374132A1.

What was measured:
[1] = target: human CD3E&G complex (Sino Biological Inc., CT041-H0305H) (human) (UniProt P07766); experiment: SPR, antigen on chip
[2] = target: cynomolgus monkey CD3 E&D complex protein (Sino Biological Inc., CT032-00323H) (cynomolgus monkey) (UniProt Q95LI5); experiment: SPR, antigen on chip
Sequence of cynomolgus monkey CD3 E&D complex protein (Sino Biological Inc., CT032-00323H) (cynomolgus monkey) (Q95LI5 22-117, chain 1 of 2): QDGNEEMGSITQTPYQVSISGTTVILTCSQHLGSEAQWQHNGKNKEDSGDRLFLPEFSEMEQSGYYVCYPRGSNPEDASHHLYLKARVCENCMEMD
Sequence of cynomolgus monkey CD3 E&D complex protein (Sino Biological Inc., CT032-00323H) (cynomolgus monkey) (Q95LI8 22-105, chain 2 of 2, further chain): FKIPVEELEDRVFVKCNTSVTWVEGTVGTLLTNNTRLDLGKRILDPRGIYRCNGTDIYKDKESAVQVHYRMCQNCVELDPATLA

Sequence of human CD3E&G complex (Sino Biological Inc., CT041-H0305H) (human) (P07766 23-126, chain 1 of 2): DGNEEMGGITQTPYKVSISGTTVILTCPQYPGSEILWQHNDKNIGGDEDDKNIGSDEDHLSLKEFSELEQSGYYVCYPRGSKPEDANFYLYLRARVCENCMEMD
Sequence of human CD3E&G complex (Sino Biological Inc., CT041-H0305H) (human) (P09693 23-116, chain 2 of 2, further chain): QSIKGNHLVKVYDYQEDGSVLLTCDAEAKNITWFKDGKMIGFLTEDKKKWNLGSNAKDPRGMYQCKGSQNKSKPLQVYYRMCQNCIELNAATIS

| Binder | Kd [1] [nM] | koff [1] [s⁻¹] | kon [1] [M⁻¹ s⁻¹] | Kd [2] [nM] | koff [2] [s⁻¹] | kon [2] [M⁻¹ s⁻¹] |
| --- | --- | --- | --- | --- | --- | --- |
| SGN70-sp34.24HL (bispecific antibody, part only; not given: anti-CD70 Fab arm and Fc, not shown: another chain or arm of the molecule; a dimerising Fc or GST; large carriers; small tags and cut ends) scFv: EVQLVESGGGLVQPGGSLKLSCAASGFTFNTYAMNWVRQASGKGLEWVGRIRSKYNNYATYYADSVKDRFTISRDDSKSTLYLQMNSLKTEDTAVYYCARHGNFGQSYVSWFAYWGQGTTVTVSSGGGGSGGGGSGGGGSGGGGSQAVVTQEPSLTVSPGGTVTLTCRSSTGAVTTSNYANWVQQKPGQAPRGLIGGTNKRAPGVPARFSGSLLGDKAALTLLGAQPEDEAEYYCALWYSNLWVFGQGTKLTVL | 110 | 0.029 | 265000 | 179 | 0.0302 | 169000 |
| SGN70-sp34.101HL (bispecific antibody, part only; not given: anti-CD70 Fab arm and Fc, not shown: another chain or arm of the molecule; a dimerising Fc or GST; large carriers) scFv: EVQLVESGGGLVQPGGSLKLSCAASGFTFNTYAMNWVRQASGKGLEWVGRIRSKYNNYATYYADSVKDRFTISRDDSKSTLYLQMNSLKTEDTAVYYCARHGNFGQSAASWFAYWGQGTTVTVSSGGGGSGGGGSGGGGSGGGGSQAVVTQEPSLTVSPGGTVTLTCRSSTGAVTTSNYANWVQQKPGQAPRGLIGGTNKRAPGVPARFSGSLLGDKAALTLLGAQPEDEAEYYCALWYSNLWVFGQGTKLTVL | 480 | 0.167 | 347000 | 658 | 0.177 | 269000 |
| SGN70-sp34.87HL (bispecific antibody, part only; not given: anti-CD70 Fab arm and Fc, not shown: another chain or arm of the molecule; a dimerising Fc or GST) scFv: EVQLVESGGGLVQPGGSLKLSCAASGFTFNTYAMNWVRQASGKGLEWVGRIRSKYNNYATYYADSVKDRFTISRDDSKSTLYLQMNSLKTEDTAVYYCARHYNFGQSYVSWFAYWGQGTTVTVSSGGGGSGGGGSGGGGSGGGGSQAVVTQEPSLTVSPGGTVTLTCRSSTGAVTTSNYANWVQQKPGQAPRGLIGGTNKRAPGVPARFSGSLLGDKAALTLLGAQPEDEAEYYCALWYSNLWVFGQGTKLTVL | 501 | 0.253 | 504000 | 633 | 0.195 | 308000 |
| SGN70-sp34.97HL (bispecific antibody, part only; not given: anti-CD70 Fab arm and Fc, not shown: another chain or arm of the molecule; a dimerising Fc or GST) scFv: EVQLVESGGGLVQPGGSLKLSCAASGFTFNTYAMNWVRQASGKGLEWVGRIRSKAGGYATYYADSVKDRFTISRDDSKSTLYLQMNSLKTEDTAVYYCARHGNFGQSYVSWFAYWGQGTTVTVSSGGGGSGGGGSGGGGSGGGGSQAVVTQEPSLTVSPGGTVTLTCRSSTGAVTTSNYANWVQQKPGQAPRGLIGGTNKRAPGVPARFSGSLLGDKAALTLLGAQPEDEAEYYCALWYSNLWVFGQGTKLTVL | 5200 | 0.416 | 79900 | 5500 | 0.705 | 128000 |
| SGN70-sp34.24LH (bispecific antibody, part only; not given: anti-CD70 Fab arm and Fc, not shown: another chain or arm of the molecule; a dimerising Fc or GST; large carriers; small tags and cut ends) scFv: QAVVTQEPSLTVSPGGTVTLTCRSSTGAVTTSNYANWVQQKPGQAPRGLIGGTNKRAPGVPARFSGSLLGDKAALTLLGAQPEDEAEYYCALWYSNLWVFGQGTKLTVLGGGGSGGGGSGGGGSGGGGSEVQLVESGGGLVQPGGSLKLSCAASGFTFNTYAMNWVRQASGKGLEWVGRIRSKYNNYATYYADSVKDRFTISRDDSKSTLYLQMNSLKTEDTAVYYCARHGNFGQSYVSWFAYWGQGTTVTVSS | 98 | 0.0146 | 150000 | 141 | 0.0158 | 113000 |
| SGN70-sp34.80LH (bispecific antibody, part only; not given: anti-CD70 Fab arm and Fc, not shown: another chain or arm of the molecule; a dimerising Fc or GST) scFv: QAVVTQEPSLTVSPGGTVTLTCRSSTGAVTTSNYANWVQQKPGQAPRGLIGGTNKRAPGVPARFSGSLLGDKAALTLLGAQPEDEAEYYCALWYSNLWVFGQGTKLTVLGGGGSGGGGSGGGGSGGGGSEVQLVESGGGLVQPGGSLKLSCAASGFTFNTAAMNWVRQASGKGLEWVGRIRSKYNNYATYYADSVKDRFTISRDDSKSTLYLQMNSLKTEDTAVYYCARHGNFGQSYVSWFAYWGQGTTVTVSS | 4060 | 0.201 | 49700 | 6490 | 0.749 | 115000 |
| SGN70-sp34.97LH (bispecific antibody, part only; not given: anti-CD70 Fab arm and Fc, not shown: another chain or arm of the molecule; a dimerising Fc or GST) scFv: QAVVTQEPSLTVSPGGTVTLTCRSSTGAVTTSNYANWVQQKPGQAPRGLIGGTNKRAPGVPARFSGSLLGDKAALTLLGAQPEDEAEYYCALWYSNLWVFGQGTKLTVLGGGGSGGGGSGGGGSGGGGSEVQLVESGGGLVQPGGSLKLSCAASGFTFNTYAMNWVRQASGKGLEWVGRIRSKAGGYATYYADSVKDRFTISRDDSKSTLYLQMNSLKTEDTAVYYCARHGNFGQSYVSWFAYWGQGTTVTVSS | 3110 | 0.253 | 81300 | 5220 | 0.333 | 63800 |
| SGN70-sp34.99LH (bispecific antibody, part only; not given: anti-CD70 Fab arm and Fc, not shown: another chain or arm of the molecule; a dimerising Fc or GST) scFv: QAVVTQEPSLTVSPGGTVTLTCRSSTGAVTTSNYANWVQQKPGQAPRGLIGGTNKRAPGVPARFSGSLLGDKAALTLLGAQPEDEAEYYCALWYSNLWVFGQGTKLTVLGGGGSGGGGSGGGGSGGGGSEVQLVESGGGLVQPGGSLKLSCAASGFTFNTYAMNWVRQASGKGLEWVGRIRSKYNNYATYYADSVKDRFTISRDDSKSTLYLQMNSLKTEDTAVYYCARHGNAYQSYVSWFAYWGQGTTVTVSS | 8060 | 0.993 | 123000 | 14600 | 0.217 | 14900 |
| SGN70-sp34.101LH (bispecific antibody, part only; not given: anti-CD70 Fab arm and Fc, not shown: another chain or arm of the molecule; a dimerising Fc or GST; large carriers) scFv: QAVVTQEPSLTVSPGGTVTLTCRSSTGAVTTSNYANWVQQKPGQAPRGLIGGTNKRAPGVPARFSGSLLGDKAALTLLGAQPEDEAEYYCALWYSNLWVFGQGTKLTVLGGGGSGGGGSGGGGSGGGGSEVQLVESGGGLVQPGGSLKLSCAASGFTFNTYAMNWVRQASGKGLEWVGRIRSKYNNYATYYADSVKDRFTISRDDSKSTLYLQMNSLKTEDTAVYYCARHGNFGQSAASWFAYWGQGTTVTVSS | 409 | 0.119 | 290000 | 614 | 0.144 | 235000 |
| SGN70-sp34.87LH (bispecific antibody, part only; not given: anti-CD70 Fab arm and Fc, not shown: another chain or arm of the molecule; a dimerising Fc or GST) scFv: QAVVTQEPSLTVSPGGTVTLTCRSSTGAVTTSNYANWVQQKPGQAPRGLIGGTNKRAPGVPARFSGSLLGDKAALTLLGAQPEDEAEYYCALWYSNLWVFGQGTKLTVLGGGGSGGGGSGGGGSGGGGSEVQLVESGGGLVQPGGSLKLSCAASGFTFNTYAMNWVRQASGKGLEWVGRIRSKYNNYATYYADSVKDRFTISRDDSKSTLYLQMNSLKTEDTAVYYCARHYNFGQSYVSWFAYWGQGTTVTVSS | 335 | 0.107 | 321000 | 544 | 0.0466 | 85700 |
